According to US20230037815A1 (CULLINAN THERAPEUTICS, published 2023):

Columns and labels:
[1] = biological target: T1, mouse serum albumin (mouse, UniProt P07724 25-608); experiment: ratio of the Octet KD for mouse serum albumin to that for human serum albumin
T1 construct: also called MSA

[2] = biological target: cynomolgus serum albumin (cynomolgus, UniProt A2V9Z4 25-608); experiment: Octet HTX (ForteBio), HCAb on AHC sensor, 1:1 fit
[3] = biological target: T2, human serum albumin (human, UniProt P02768 25-609); experiment: Octet HTX (ForteBio), HCAb on AHC sensor, 1:1 fit
T2 construct: also called HSA

[4] = biological target: T1, mouse serum albumin; experiment: Octet HTX (ForteBio), HCAb on AHC sensor, 1:1 fit
[5] = biological target: protein A (UniProt P38507 37-327); experiment: Octet HTX (ForteBio), HCAb on AHC sensor; legend: no binding was detected under the conditions of this assay

T1 sequence (P07724 25-608 limits assumed): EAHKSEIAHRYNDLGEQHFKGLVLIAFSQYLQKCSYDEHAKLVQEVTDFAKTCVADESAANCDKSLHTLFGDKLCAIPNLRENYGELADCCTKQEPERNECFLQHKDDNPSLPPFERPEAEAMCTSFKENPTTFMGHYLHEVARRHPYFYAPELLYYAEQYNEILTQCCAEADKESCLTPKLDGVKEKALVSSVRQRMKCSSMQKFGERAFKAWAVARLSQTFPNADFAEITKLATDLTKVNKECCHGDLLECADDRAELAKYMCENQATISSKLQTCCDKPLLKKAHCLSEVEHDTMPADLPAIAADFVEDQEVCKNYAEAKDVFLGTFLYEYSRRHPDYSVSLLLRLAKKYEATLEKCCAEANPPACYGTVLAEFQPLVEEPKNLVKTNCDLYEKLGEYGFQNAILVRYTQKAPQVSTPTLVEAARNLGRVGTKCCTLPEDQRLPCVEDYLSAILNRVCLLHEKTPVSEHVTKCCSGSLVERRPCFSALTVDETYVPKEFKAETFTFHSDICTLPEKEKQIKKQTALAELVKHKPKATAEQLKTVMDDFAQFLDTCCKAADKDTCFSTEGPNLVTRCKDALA
Chain of cynomolgus serum albumin (A2V9Z4 25-608 limits assumed): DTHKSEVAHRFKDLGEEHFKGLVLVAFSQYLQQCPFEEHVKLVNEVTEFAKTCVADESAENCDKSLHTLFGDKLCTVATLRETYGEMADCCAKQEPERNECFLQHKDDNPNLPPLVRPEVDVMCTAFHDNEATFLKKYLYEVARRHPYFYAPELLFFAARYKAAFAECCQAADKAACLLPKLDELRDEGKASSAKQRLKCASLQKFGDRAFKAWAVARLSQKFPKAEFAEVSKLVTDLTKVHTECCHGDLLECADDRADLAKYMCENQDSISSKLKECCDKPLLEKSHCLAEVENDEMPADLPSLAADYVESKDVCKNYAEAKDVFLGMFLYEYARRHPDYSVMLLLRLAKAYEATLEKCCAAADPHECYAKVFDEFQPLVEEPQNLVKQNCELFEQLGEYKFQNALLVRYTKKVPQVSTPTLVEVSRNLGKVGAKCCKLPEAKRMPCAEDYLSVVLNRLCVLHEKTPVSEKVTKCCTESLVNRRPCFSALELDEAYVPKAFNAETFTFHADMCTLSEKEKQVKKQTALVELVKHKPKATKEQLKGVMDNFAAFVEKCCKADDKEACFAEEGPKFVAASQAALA

Ratio of MSA-KD to HSA-KD [1]: 3.41
Kd [2]: 0.0144 µM
koff [2]: 0.00238 s⁻¹
Kd [3]: 0.017 µM
koff [3]: 0.00297 s⁻¹
Kd [4]: 0.0578 µM
koff [4]: 0.0124 s⁻¹
binding result [5]: no binding
B1: CNG-HSA-106 (VHH)
VHH: KVQLLESGGGLVQPGGSLRLSCAASGFTFSSFGMSWVRQAPGKGLEWVSSISGSGSDTLYADSVRGRFTISRDNSKNTLYLQMDSLRAEDTAVYYCTIGGSRSISSQGTLVTVSS
